Results taken from the RNAGym collection of RNA variant scans (doi:10.1093/molbev/msab373).

B1: Azoarcus group I ribozyme (parent)
chain: GUGCCUUGCGCCGGGAAACCACGCAAGGGAUGGUGUCAAAUUCGGCGAAACCUAAGCGCCCGCCCGGGCGUAUGGCAACGCCGAGCCAAGCUUCGGCGCCUGCGCCGAUGAAGGUGUAGAGACUAGACGGCACCCACCUAAGGCAAACGCUAUGGUGAAGGCAUAGUCCAGGGAGUGGCGAAAGUCACACAAACCGG

Variants of: B1
Assay: reverse-splicing fitness (ratio to wild type); higher = more active; in vitro selection; Mg2+ level not given
Method in brief: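 An in vitro group I ribozyme library with randomized positions was T7-transcribed and gel-purified. In triplicate, 10 pmol RNA in EPPS pH 7.5 was reacted with 50 pmoles of a 30-nt RNA substrate for 1 h at 37 °C across several added MgCl2 levels (1–48 mM), then stopped with EDTA. Products were reverse transcribed from a substrate-complementary primer, PCR-amplified and sequenced (HiSeq 4000). Fitness is a variant's read proportion after selection over that before, normalised to wild type.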

Compared with GUGCCUUGCGCCGGGAAACCACGCAAGGGAUGGUGUCAAAUUCGGCGAAACCUAAGCGCCCGCCCGGGCGUAUGGCAACGCAGAGCCAAGCUUCGGCGCCUGCGCCGAUGCAGGUGUAGAGACUAGACGGCACCCACCUAAGGCGAACGAUAUGGUGAAGGCAUAGUCGAGGGAGAGGCGAAAGUCACACAAACCGG, GUGCCUUGCGCCGGGAAACCACGCAAGGGAUGGUGUCAAAUUCGGCGAAACCUAAGCGCCCGCCCGGGCGUAUGGCAACGCAGAGCCAAGCUUCGGCGCCUGCGCCGAUGCAGGUGUAGAGACUAGACGGCACCCACCUAAGGCCAACGCUAUGGUGAAGGCAUAGUCAAGGGAGGGGCGAAAGUCACACAAACCGG is lower in reverse-splicing fitness: 0.0152 for the first, 0.00693 for the second.

First: GUGCCUUGCGCCGGGAAACCACGCAAGGGAUGGUGUCAAAUUCGGCGAAACCUAAGCGCCCGCCCGGGCGUAUGGCAACGCAGAGCCAAGCUUCGGCGCCUGCGCCGAUGCAGGUGUAGAGACUAGACGGCACCCACCUAAGGCCAACGCUAUGGUGAAGGCAUAGUCAAGGGAGAGGCGAAAGUCACACAAACCGG
Second: GUGCCUUGCGCCGGGAAACCACGCAAGGGAUGGUGUCAAAUUCGGCGAAACCUAAGCGCCCGCCCGGGCGUAUGGCAACGCAGAGCCAAGCUUCGGCGCCUGCGCCGAUGCAGGUGUAGAGACUAGACGGCACCCACCUAAGGCCAACGCUAUGGUGAAGGCAUAGUCAAGGGAGCGGCGAAAGUCACACAAACCGG
The reverse-splicing fitness of the first is higher: 0.0135 for the first, 0.00942 for the second.

Going from GUGCCUUGCGCCGGGAAACCACGCAAGGGAUGGUGUCAAAUUCGGCGAAACCUAAGCGCCCGCCCGGGCGUAUGGCAACGCAGAGCCAAGCUUCGGCGCCUGCGCCGAUGCAGGUGUAGAGACUAGACGGCACCCACCUAAGGCGAACGAUAUGGUGAAGGCAUAGUCAAGGGAGUGGCGAAAGUCACACAAACCGG to GUGCCUUGCGCCGGGAAACCACGCAAGGGAUGGUGUCAAAUUCGGCGAAACCUAAGCGCCCGCCCGGGCGUAUGGCAACGCAGAGCCAAGCUUCGGCGCCUGCGCCGAUGCAGGUGUAGAGACUAGACGGCACCCACCUAAGGCGAACGAUAUGGUGAAGGCAUAGUCGAGGGAGUGGCGAAAGUCACACAAACCGG, the reverse-splicing fitness falls from 0.011 to 0.00824.

Going from GUGCCUUGCGCCGGGAAACCACGCAAGGGAUGGUGUCAAAUUCGGCGAAACCUAAGCGCCCGCCCGGGCGUAUGGCAACGCAGAGCCAAGCUUCGGCGCCUGCGCCGAUGCAGGUGUAGAGACUAGACGGCACCCACCUAAGGCGAACGAUAUGGUGAAGGCAUAGUCUAGGGAGUGGCGAAAGUCACACAAACCGG to GUGCCUUGCGCCGGGAAACCACGCAAGGGAUGGUGUCAAAUUCGGCGAAACCUAAGCGCCCGCCCGGGCGUAUGGCAACGCAGAGCCAAGCUUCGGCGCCUGCGCCGAUGCAGGUGUAGAGACUAGACGGCACCCACCUAAGGCCAACGCUAUGGUGAAGGCAUAGUCGAGGGAGCGGCGAAAGUCACACAAACCGG, the reverse-splicing fitness rises from 0.0111 to 0.0216.

Compared with GUGCCUUGCGCCGGGAAACCACGCAAGGGAUGGUGUCAAAUUCGGCGAAACCUAAGCGCCCGCCCGGGCGUAUGGCAACGCAGAGCCAAGCUUCGGCGCCUGCGCCGAUGCAGGUGUAGAGACUAGACGGCACCCACCUAAGGCCAACGCUAUGGUGAAGGCAUAGUCGAGGGAGAGGCGAAAGUCACACAAACCGG, GUGCCUUGCGCCGGGAAACCACGCAAGGGAUGGUGUCAAAUUCGGCGAAACCUAAGCGCCCGCCCGGGCGUAUGGCAACGCAGAGCCAAGCUUCGGCGCCUGCGCCGAUGCAGGUGUAGAGACUAGACGGCACCCACCUAAGGCCAACGCUAUGGUGAAGGCAUAGUCGAGGGAGGGGCGAAAGUCACACAAACCGG is lower in reverse-splicing fitness: 0.0269 for the first, 0.00783 for the second.

Compared with GUGCCUUGCGCCGGGAAACCACGCAAGGGAUGGUGUCAAAUUCGGCGAAACCUAAGCGCCCGCCCGGGCGUAUGGCAACGCAGAGCCAAGCUUCGGCGCCUGCGCCGAUGCAGGUGUAGAGACUAGACGGCACCCACCUAAGGCGAACGAUAUGGUGAAGGCAUAGUCCAGGGAGUGGCGAAAGUCACACAAACCGG, GUGCCUUGCGCCGGGAAACCACGCAAGGGAUGGUGUCAAAUUCGGCGAAACCUAAGCGCCCGCCCGGGCGUAUGGCAACGCAGAGCCAAGCUUCGGCGCCUGCGCCGAUGCAGGUGUAGAGACUAGACGGCACCCACCUAAGGCCAACGCUAUGGUGAAGGCAUAGUCGAGGGAGUGGCGAAAGUCACACAAACCGG is lower in reverse-splicing fitness: 0.0316 for the first, 0.00923 for the second.

Compared with GUGCCUUGCGCCGGGAAACCACGCAAGGGAUGGUGUCAAAUUCGGCGAAACCUAAGCGCCCGCCCGGGCGUAUGGCAACGCAGAGCCAAGCUUCGGCGCCUGCGCCGAUGCAGGUGUAGAGACUAGACGGCACCCACCUAAGGCCAACGCUAUGGUGAAGGCAUAGUCAAGGGAGUGGCGAAAGUCACACAAACCGG, GUGCCUUGCGCCGGGAAACCACGCAAGGGAUGGUGUCAAAUUCGGCGAAACCUAAGCGCCCGCCCGGGCGUAUGGCAACGCAGAGCCAAGCUUCGGCGCCUGCGCCGAUGCAGGUGUAGAGACUAGACGGCACCCACCUAAGGCCAACGCUAUGGUGAAGGCAUAGUCUAGGGAGUGGCGAAAGUCACACAAACCGG is higher in reverse-splicing fitness: 0.00711 for the first, 0.0124 for the second.

For GUGCCUUGCGCCGGGAAACCACGCAAGGGAUGGUGUCAAAUUCGGCGAAACCUAAGCGCCCGCCCGGGCGUAUGGCAACGCAGAGCCAAGCUUCGGCGCCUGCGCCGAUGCAGGUGUAGAGACUAGACGGCACCCACCUAAGGCCAACGUUAUGGUGAAGGCAUAGUCCAGGGAGGGGCGAAAGUCACACAAACCGG, the reverse-splicing fitness was 0.00993.
